The numbers were not newly measured in paper PMC4937678, “In Vivo Measurement and Characterization of a Novel Formulation of [^177Lu]-DOTA-Octreotate” (Asia Oceania Journal of Nuclear Medicine and Biology, 2016), which cites them from elsewhere.

The structures appear in SMILES notation. Like-named read-outs stand apart in the source and are kept apart here.

The text on the data set:
Table 4 Comparison of Published Radiation Dose Estimates for Different Formulations of [^177Lu]-DOTA-Octreotate ([3], [7]-[11]) | column: Dose (mGy/MBq)

[1] abbreviates: 6 subjects, ref Kwekkeboom (2001) [3].
[2] abbreviates: 10 subjects, value (range), ref Cremonesi (2006) [10].
Where [3] appears, read: 24 subjects, range, ref Sandstrom (2010) [8].

As to `C[C@@H](O)[C@H](NC(=O)[C@@H]1CSSC[C@H](NC(=O)[C@@H](Cc2ccccc2)NC(=O)CN2CCN(CC(=O)[O-])CCN(CC(=O)[O-])CCN(CC(=O)[O-])CC2)C(=O)N[C@@H](Cc2ccc(O)cc2)C(=O)N[C@H](Cc2c[nH]c3ccccc23)C(=O)N[C@@H](CCCCN)C(=O)N[C@@H]([C@@H](C)O)C(=O)N1)C(=O)O.[177Lu+3]` [[^177Lu]-DOTA-Octreotate], the “Dose, Liver” value reads like this: under setting [1], 0.21 ± 0.08 mGy/MBq; under setting [2], 0.18 (0.05 – 0.34) mGy/MBq. Also, the “Dose, Red Marrow” value under setting [1] is given as 0.07 ± 0.01 mGy/MBq; the “Dose, Red Marrow” value under setting [2] is on record as 0.04 (0.02 – 0.06) mGy/MBq; the “Dose, Red Marrow” value (14 subjects, ref Forrer (2009) [9]) is on record as 0.02 ± 0.03 mGy/MBq; the “Dose, Red Marrow” value (27 subjects, ref Wehrmann (2007) [11]) is 0.04 ± 0.02 mGy/MBq. In addition, the “Dose, Spleen” value under setting [1] was 2.15 ± 0.39 mGy/MBq; the “Dose, Spleen” value under setting [2] is 0.64 (0.29-2.91) mGy/MBq; the “Dose, Spleen” value (73 subjects, ref Wehrmann (2007) [11]) is listed as 1.2 ± 0.5 mGy/MBq. For the same compound, under setting [3], the “Dose, Kidney (range)” value is reported as “(0.32 – 1.67) mGy/MBq”. For the same compound, under setting [3], the “Dose, Liver (range)” value is “(0.13 – 1.10) mGy/MBq”. Moreover, the “Dose, Spleen (range)” value under setting [3] is 0.21 – 1.86 mGy/MBq. For the same compound, the “Dose, Kidney” value is on record as 0.9 ± 0.3 mGy/MBq (89 subjects, ref Wehrmann (2007) [11]); 1.65 mGy/MBq (no renal protection, 6 subjects, ref Kwekkeboom (2001) [3]); 0.88 mGy/MBq (with renal protection, 5 subjects, ref Kwekkeboom (2001) [3]).
